Patent US20250163127A1
Positions count from the first letter of the chain named. Names may count otherwise. Values belong to the binder of their own block, whether it stands above or below them.

Columns and labels:
PD-L1 (human) [1] = test: flow cytometry, CHO cells expressing PD-L1
CTLA-4 (human) [2] = test: flow cytometry, CHO cells expressing CTLA4
CD28 (human) [3] = molecular target: CD28 (human) (UniProt P10747); test: flow cytometry, Jurkat cells (CD28)
PD-L1 (human) [4] = test: flow cytometry, cells expressing PD-L1
CTLA-4 (human) [5] = test: flow cytometry, cells expressing CTLA-4
CD28 (human) [6] = molecular target: CD28 (human) (UniProt P10747); test: flow cytometry, cells expressing CD28
human PD-1 (human) = human PD-1 (human) (UniProt Q15116)
human PD-1 (human), sequence (Q15116 25-288): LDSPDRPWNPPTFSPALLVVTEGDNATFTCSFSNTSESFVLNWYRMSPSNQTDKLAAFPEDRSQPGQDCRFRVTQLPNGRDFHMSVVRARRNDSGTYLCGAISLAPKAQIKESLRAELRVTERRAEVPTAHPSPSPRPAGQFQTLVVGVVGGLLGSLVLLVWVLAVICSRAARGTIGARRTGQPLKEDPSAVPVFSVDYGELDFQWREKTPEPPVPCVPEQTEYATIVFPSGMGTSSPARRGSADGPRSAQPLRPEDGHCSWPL

PD-1-Fc (human) = PD-1-Fc (human) (UniProt Q15116); test: ForteBio Octet, PD-1 on anti-human capture sensor, 100 nM
PD-1-Fc (human), sequence (Q15116 25-167 limits assumed): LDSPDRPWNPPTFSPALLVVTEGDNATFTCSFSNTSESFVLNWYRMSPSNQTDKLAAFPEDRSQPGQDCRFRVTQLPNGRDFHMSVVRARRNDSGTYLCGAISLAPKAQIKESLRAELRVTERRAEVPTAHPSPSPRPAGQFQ

CTLA-4 (human), sequence (chain, as listed by the source): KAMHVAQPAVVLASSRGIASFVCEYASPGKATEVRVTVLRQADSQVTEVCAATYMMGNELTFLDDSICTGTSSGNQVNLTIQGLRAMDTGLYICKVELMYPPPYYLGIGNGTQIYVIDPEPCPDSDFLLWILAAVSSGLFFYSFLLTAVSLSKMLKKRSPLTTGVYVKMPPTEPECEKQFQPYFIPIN
PD-L1 (human), sequence (chain, as listed by the source): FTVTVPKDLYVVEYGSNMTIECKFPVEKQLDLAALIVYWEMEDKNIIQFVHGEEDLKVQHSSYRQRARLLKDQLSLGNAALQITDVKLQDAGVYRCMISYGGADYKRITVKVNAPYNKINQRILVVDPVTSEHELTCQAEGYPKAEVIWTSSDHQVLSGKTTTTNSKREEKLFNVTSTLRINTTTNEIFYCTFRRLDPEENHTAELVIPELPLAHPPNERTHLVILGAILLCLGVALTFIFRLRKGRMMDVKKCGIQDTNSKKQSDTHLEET

Fold change to WT CD80 (PD-L1 (human) [1]): 3.79 fold
MFI at 33.3 nM (PD-L1 (human) [1]): 45000 MFI
Fold change to WT CD80 (CTLA-4 (human) [2]): 1.91 fold
MFI at 33.3 nM (CTLA-4 (human) [2]): 301000 MFI
Fold change to WT CD80 (CD28 (human) [3]): 0.1 fold
MFI at 33.3 nM (CD28 (human) [3]): 1760 MFI
B1: variant CD80 E35D/M47I/T62S/L85Q (Fc fusion)
chain: VIHVTKEVKEVATLSCGHNVSVEELAQTRIYWQKDKKMVLTMMSGDINIWPEYKNRTIFDISNNLSIVILALRPSDEGTYECVVQKYEKDAFKREHLAEVT

MFI (PD-L1 (human) [4]): 959 MFI
parental ratio (PD-L1 (human) [4]): 0.05
MFI (CTLA-4 (human) [5]): 1400 MFI
parental ratio (CTLA-4 (human) [5]): 0.03
MFI (CD28 (human) [6]): 1170 MFI
parental ratio (CD28 (human) [6]): 0.09
B2: variant CD80 K36G/K37Q/M38I/L40M (Fc fusion)
chain: VIHVTKEVKEVATLSCGHNVSVEELAQTRIYWQKEGQIVMTMMSGDMNIWPEYKNRTIFDITNNLSIVILALRPSDEGTYECVVLKYEKDAFKREHLAEVTLSVKADFPTPSISDFEIPTSNIRRIICSTSGGFPEPHLSWLENGEELNAINTTVSQDPETELYAVSSKLDFNMTTNHSFMCLIKYGHLRVNQTFNWNTTKQEHFPDN

IFN gamma levels pg/mL (MLR) (human PD-1 (human)): 1820 pg/mL
Fortebio Response Units (Response Units) (PD-1-Fc (human)): 0.007
B3: variant PD-L2 IgV H15Q Fc fusion (Fc fusion)
chain: LFTVTVPKELYIIEQGSNVTLECNFDTGSHVNLGAITASLQKVENDTSPHRERATLLEEQLPLGKASFHIPQVQVRDEGQYQCIIIYGVAWDYKYLTLKVKA

IFN gamma levels pg/mL (MLR) (human PD-1 (human)): 1320 pg/mL
Fortebio Response Units (Response Units) (PD-1-Fc (human)): 0.025
B4: variant PD-L2 IgV H15Q/S67L/R76G/I85F Fc fusion (Fc fusion)
chain: B3 chain with S67L, R76G, I85F

IFN gamma levels pg/mL (MLR) (human PD-1 (human)): 1500 pg/mL
Fortebio Response Units (Response Units) (PD-1-Fc (human)): 0.31
B5: variant PD-L2 IgV H15Q/V89D Fc fusion (Fc fusion)
chain: B3 chain with V89D

IFN gamma levels pg/mL (MLR) (human PD-1 (human)): 1250 pg/mL
Fortebio Response Units (Response Units) (PD-1-Fc (human)): 1.6
B6: variant PD-L2 IgV I13V/H15Q/T47A/R76G/V89D Fc fusion (Fc fusion)
chain: B3 chain with I13V, T47A, R76G, V89D

IFN gamma levels pg/mL (MLR) (human PD-1 (human)): 1980 pg/mL
Fortebio Response Units (Response Units) (PD-1-Fc (human)): -0.039
B7: variant PD-L2 IgV N24D Fc fusion (Fc fusion)
chain: B3 chain with Q15H, N24D

IFN gamma levels pg/mL (MLR) (human PD-1 (human)): 1510 pg/mL
Fortebio Response Units (Response Units) (PD-1-Fc (human)): -0.001
B8: variant PD-L2 IgV H15Q/K65R Fc fusion (Fc fusion)
chain: B3 chain with K65R

IFN gamma levels pg/mL (MLR) (human PD-1 (human)): 1640 pg/mL
Fortebio Response Units (Response Units) (PD-1-Fc (human)): 0.016
B9: variant PD-L2 IgV H15Q/T47A Fc fusion (Fc fusion)
chain: B3 chain with T47A

IFN gamma levels pg/mL (MLR) (human PD-1 (human)): 1750 pg/mL
Fortebio Response Units (Response Units) (PD-1-Fc (human)): 1.25
B10: variant PD-L2 IgV I13V/H15Q/T37A/E44D/S48C/S67L/Q82R/V89D Fc fusion (Fc fusion)
chain: B3 chain with I13V, T37A, E44D, S48C, S67L, Q82R, V89D

IFN gamma levels pg/mL (MLR) (human PD-1 (human)): 1080 pg/mL
Fortebio Response Units (Response Units) (PD-1-Fc (human)): 1.2
B11: variant PD-L2 IgV H15Q/Q82R/V89D Fc fusion (Fc fusion)
chain: B3 chain with Q82R, V89D

Fortebio Response Units (Response Units) (PD-1-Fc (human)): 1.28
B12: variant PD-L2 IgV I13V/E44D/Q82R/V89D Fc fusion (Fc fusion)
chain: B3 chain with I13V, Q15H, E44D, Q82R, V89D

IFN gamma levels pg/mL (MLR) (human PD-1 (human)): 1780 pg/mL
Fortebio Response Units (Response Units) (PD-1-Fc (human)): 0.003
B13: variant PD-L2 IgV G28V/Q72H/R76G/I86T Fc fusion (Fc fusion)
chain: B3 chain with Q15H, G28V, Q72H, R76G, I86T

IFN gamma levels pg/mL (MLR) (human PD-1 (human)): 1500 pg/mL
Fortebio Response Units (Response Units) (PD-1-Fc (human)): -0.006
B14: variant PD-L2 IgV E44D Fc fusion (Fc fusion)
chain: B3 chain with Q15H, E44D

IFN gamma levels pg/mL (MLR) (human PD-1 (human)): 1600 pg/mL
Fortebio Response Units (Response Units) (PD-1-Fc (human)): 0.512
B15: variant PD-L2 IgV H15Q/T47A/Q72H/R76G/I86T Fc fusion (Fc fusion)
chain: B3 chain with T47A, Q72H, R76G, I86T

IFN gamma levels pg/mL (MLR) (human PD-1 (human)): 1280 pg/mL
Fortebio Response Units (Response Units) (PD-1-Fc (human)): -0.005
B16: variant PD-L2 IgV S67L/I85F Fc fusion (Fc fusion)
chain: B3 chain with Q15H, S67L, I85F

IFN gamma levels pg/mL (MLR) (human PD-1 (human)): 1170 pg/mL
Fortebio Response Units (Response Units) (PD-1-Fc (human)): 0.005
B17: variant PD-L2 IgV V89D Fc fusion (Fc fusion)
chain: B3 chain with Q15H, V89D

IFN gamma levels pg/mL (MLR) (human PD-1 (human)): 1090 pg/mL
Fortebio Response Units (Response Units) (PD-1-Fc (human)): 0.4
B18: variant PD-L2 IgV H15Q/N24S/T47A/Q72H/R76G/V89D Fc fusion (Fc fusion)
chain: B3 chain with N24S, T47A, Q72H, R76G, V89D
